Measured values as given in patent US20250144214A1 (US Dept. of Health and Human Services, published 2025).
Where two headings read alike, the source gives them in different places.

T1: glypican-2 (GPC2), as used in the binding affinity test (UniProt Q8N158 24-553, limits assumed)
T1 construct: It states neither the form of the antigen nor the assay
T1 sequence (looked up): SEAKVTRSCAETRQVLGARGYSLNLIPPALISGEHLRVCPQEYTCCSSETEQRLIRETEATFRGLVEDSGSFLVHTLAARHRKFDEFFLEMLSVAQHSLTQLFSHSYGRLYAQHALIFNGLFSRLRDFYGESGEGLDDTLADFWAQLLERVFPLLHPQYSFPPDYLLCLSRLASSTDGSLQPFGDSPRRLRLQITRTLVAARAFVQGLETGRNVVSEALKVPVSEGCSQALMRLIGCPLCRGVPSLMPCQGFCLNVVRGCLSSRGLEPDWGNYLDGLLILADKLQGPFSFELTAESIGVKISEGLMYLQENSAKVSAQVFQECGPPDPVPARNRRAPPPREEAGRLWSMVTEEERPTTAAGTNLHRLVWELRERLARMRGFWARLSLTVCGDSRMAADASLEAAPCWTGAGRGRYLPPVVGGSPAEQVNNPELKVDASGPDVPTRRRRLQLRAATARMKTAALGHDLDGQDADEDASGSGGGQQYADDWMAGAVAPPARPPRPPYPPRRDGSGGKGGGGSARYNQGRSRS


Experiments:
[1] = target: T1, glypican-2 (GPC2), as used in the …; assay: binding affinity for GPC2; method not stated (graphs in FIGS. 7A-7B)
[2] = target: T1, glypican-2 (GPC2), as used in the …; assay: sensorgrams, Response (nm) against Time (unit inferred), traces at 200, 100 and 50 nM; instrument and immobilised partner not stated
[3] = target: T1, glypican-2 (GPC2), as used in the …; assay: as above; remark: listed apart in the source

Binder	binding affinity [1] [nM]	Kd [2] [nM]	Kd [3] [nM]
CT3 antibody (parental murine GPC2-specific monoclonal antibody) (antibody, V domains shown, also called parental CT3 antibody; murine antibody CT3) VH: EVQLQQSGPELVKPGASVKMSCKASRFTFTDYNIHWVKQSPGKTLEWIGYINPNNGDIFYKQKFNGKATLTINKSSNTAYMELRSLTSEDSAVYYCVRSSNIRYTFDRFFDVWGTGTTVTVSS VL: ENVLTQSPAIMSASLGEKVTMSCRASSSVNYIYWYQQKSDASPKLWIYYTSNLAPGVPARFSGSGSGNSYSLTISSMEGEDAATYYCQQFSSSPSTFGTGTKLELK	2.2	–	–
hCT3-2 (humanized CT3 antibody) (antibody, V domains shown) VH: QVQLVQSGAEVKKPGASVKVSCKASRFTFTDYNIHWVRQAPGQRLEWIGYINPNNGDIFYKQKFNGRVTITRDTSASTAYMELSSLRSEDTAVYYCVRSSNIRYTFDRFFDVWGQGTLVTVS VL: DVVMTQSPAFLSVTPGEKVTITCRASSSVNYIYWYQQKPDQAPKLWIYYTSNLAPGVPSRFSGSGSGTDFTFTISSLEAEDAATYYCQQFSSSPSTFGQGTKLEIK	3.6	3.6	–
hCT3-3 (humanized CT3 antibody) (antibody, V domains shown) VH: QVQLVQSGAEVKKPGASVKVSCKASRFTFTDYNIHWVRQAPGQGLEWIGYINPNNGDIFYKQKFNGKATMTVDTSTSTVYMELSSLRSEDTAVYYCVRSSNIRYTFDRFFDVWGQGTLVTVS VL: DIQMTQSPSSLSASVGDRVTITCRASSSVNYIYWYQQKSGKAPKLWIYYTSNLAPGVPSRFSGSGSGTDFTLTISSLQPEDFATYYCQQFSSSPSTFGQGTKLEIK	2.5	–	2.5
hCT3-4 (humanized CT3 antibody) (antibody, V domains shown) VH: QVQLVQSGAEVKKPGASVKVSCKASRFTFTDYNIHWVRQAPGQRLEWIGYINPNNGDIFYKQKFNGRVTITRDTSASTAYMELSSLRSEDTAVYYCVRSSNIRYTFDRFFDVWGQGTLVTVS VL: EIVLTQSPATLSLSPGERATLSCRASSSVNYIYWYQQKPGQAPRLWIYYTSNLAPGIPARFSGSGSGTDFTLTISSLEPEDFAVYYCQQFSSSPSTFGQGTKLEIK	3.3	–	3.3
hCT3-1 (humanized CT3 antibody) (antibody, V domains shown) VH: QVQLVQSGAEVKKPGASVKVSCKASRFTFTDYNIHWVRQAPGQGLEWIGYINPNNGDIFYKQKFNGRVTLTADKSTSTAYMELSSLTSEDTAVYYCVRSSNIRYTFDRFFDVWGQGTLVTVSS VL: DVVMTQSPLSLPVTPGEPASISCRASSSVNYIYWYLQKPGQSPQLWIYYTSNLAPGVPDRFSGSGSGTDFTLKISRVEAEDVGVYYCQQFSSSPSTFGQGTKLEIK	4	4	–
